Paper PMC9036094, “Antigen-derived peptides engage the ER stress sensor IRE1α to curb dendritic cell cross-presentation” (The Journal of Cell Biology, 2022)

What was measured:
IRE1α LD-Fc = test: Co-immunoprecipitation of ovalbumin with IRE1α LD-Fc; format: binding, human; details: LD-Fc 10 μg/ml, 2 h; ovalbumin 1-300 μg/ml; in words
Protocol: For experiments testing ovalbumin binding, a human LD-Fc was used at indicated concentrations. LD-Fc is comprised of amino acids M1-D443 of IRE1α fused C-terminally to a linker ([…]) followed by the human IgG1 hinge and Fc portion. Ovalbumin (Sigma-Aldrich) was dissolved in sterile PBS and used in native state or denatured as indicated by incubation at 95°C buffer for 10 min.
For co-immunoprecipitation experiments, IRE1α LD-Fc (10 μg/ml) and ovalbumin (indicated concentrations) were co-incubated in binding buffer (as described above) for 2 h and then immunoprecipitated with anti-IRE1α LD antibody (made in-house at Genentech), conjugated to sepharose beads, overnight at 4°C. Beads were subsequently washed four times with lysis buffer and boiled in SDS sample buffer for 10 min. Samples were then analyzed by SDS-PAGE followed by immunoblot.

IRE1α in TAP1 KO BMDCs = test: IRE1α activation in TAP1-disrupted BMDCs (immunoblot); format: cell-based, mouse; details: CRISPR/Cas9 TAP1; ovalbumin 500 μg/ml, 4 h
Protocol: Figure 1. Antigen pulsing of BMDCs activates IRE1α. (A) BMDCs were pulsed with ovalbumin (starting at 62.5 μg/ml and sequentially doubled) and analyzed by immunoblot (IB) for the indicated markers. (B) BMDCs were pulsed with ovalbumin (starting at 500 μg/ml and sequentially halved) or […] (1 μM), or stimulated with tunicamycin (1 μg/ml) or poly-I:C (25 μg/ml) for 4 h, and analyzed by IB. (C) BMDCs were pulsed with ovalbumin (500 μg/ml) for indicated time points and analyzed by IB. (D) BMDCs were pulsed for 4 h with ovalbumin or lysates derived from the indicated cell lines (500 μg/ml protein) and analyzed by IB. […] (F) Upon removal from bone marrow, total bone marrow cells were transfected with non-targeting control (NTC) or TAP1-targeting gRNAs, along with CRISPR/Cas9 delivery constructs. Cells were then subjected to standard BMDC-differentiation protocol, pulsed with ovalbumin (500 μg/ml) for 4 h, and analyzed by IB. All IB images are representative of at least two similar experiments, and molecular weights represent kD. Source data are available for this figure: SourceData F1.
Cells were lysed in PBS solution supplemented with 1X radioimmunoprecipitation assay buffer (Millipore) and 2X Halt protease-phosphatase inhibitor cocktail (Thermo Fisher Scientific). […]

B1: ovalbumin: classical protein antigen ovalbumin (Sigma-Aldrich) (protein)
chain: MGSIGAASMEFCFDVFKELKVHHANENIFYCPIAIMSALAMVYLGAKDSTRTQINKVVRFDKLPGFGDSIEAQCGTSVNVHSSLRDILNQITKPNDVYSFSLASRLYAEERYPILPEYLQCVKELYRGGLEPINFQTAADQARELINSWVESQTNGIIRNVLQPSSVDSQTAMVLVNAIVFKGLWEKAFKDEDTQAMPFRVTEQESKPVQMMYQIGLFRVASMASEKMKILELPFASGTMSMLVLLPDEVSGLEQLESIINFEKLTEWTSSNVMEERKIKVYLPRMKMEEKYNLTSVLMAMGITDVFSSSANLSGISSAESLKISQAVHAAHAEINEAGREVVGSAEAGVDAASVSEEFRADHPFLFCIKHIATNAVLFFGRCVSP
IRE1α LD-Fc
  co-immunoprecipitation with IRE1α LD-Fc: did not show appreciable binding
IRE1α in TAP1 KO BMDCs
  IRE1α stimulation upon TAP1 disruption: prevented IRE1α stimulation
